Measured values taken from patent publication US20240269271A1.

What was measured:
HVEM [1] = experiment: competition ELISA, plates coated with BTLA, HVEM binding read out
HVEM [2] = experiment: competition ELISA, plates coated with BTLA, HVEM binding read out; control protein

Substance	percent inhibition of HVEM binding to BTLA (HVEM [1])	percent inhibition of HVEM binding to BTLA (HVEM [2])
commercially available gD protein (ligand)	90%	–
sequence of the V2 loop of HIV envelope linked to a His-tag	–	45%
